Targets include RBPJ (53–474) E260K (Mus musculus, UniProt P31266 53-474, E260K); RBPJ (53–474) V263A (Mus musculus, UniProt P31266 53-474, V263A); RBPJ (53–474) K275M (Mus musculus, UniProt P31266 53-474, K275M); RBPJ (53–474) Q333A (Mus musculus, UniProt P31266 53-474, Q333A).
What all share (test): ITC
Background: ITC needs no label: the signal is the heat of the interaction.

Test [1] concerns the target T1, RBPJ (53–474) E260A (Mus musculus, UniProt P31266 53-474, E260A).
Test [2] concerns the target T1, RBPJ (53–474) E260A. The source holds these as a separate data set.
The target in test [3] is T2, human L3MBTL3 fragment 1–523 (human, UniProt Q96JM7-2 1-523).
T2 sequence (looked up): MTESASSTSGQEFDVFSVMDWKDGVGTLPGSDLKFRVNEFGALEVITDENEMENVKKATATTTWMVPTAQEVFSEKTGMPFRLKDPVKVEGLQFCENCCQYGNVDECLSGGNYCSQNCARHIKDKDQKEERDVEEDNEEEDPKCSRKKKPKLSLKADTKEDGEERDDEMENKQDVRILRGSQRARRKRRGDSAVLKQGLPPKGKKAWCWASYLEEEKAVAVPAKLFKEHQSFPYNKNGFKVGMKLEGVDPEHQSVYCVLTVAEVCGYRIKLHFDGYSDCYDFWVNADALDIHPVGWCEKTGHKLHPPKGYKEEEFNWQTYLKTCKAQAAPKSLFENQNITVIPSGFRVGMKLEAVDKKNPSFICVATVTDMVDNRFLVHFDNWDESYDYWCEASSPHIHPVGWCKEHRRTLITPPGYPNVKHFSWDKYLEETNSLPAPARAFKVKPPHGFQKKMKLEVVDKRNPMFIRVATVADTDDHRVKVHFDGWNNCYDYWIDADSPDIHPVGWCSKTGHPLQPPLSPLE

For orientation: Kd means the equilibrium constant for the complex coming apart.

Sequence of RBPJ (53–474) K275M (P31266 53-474 K275M): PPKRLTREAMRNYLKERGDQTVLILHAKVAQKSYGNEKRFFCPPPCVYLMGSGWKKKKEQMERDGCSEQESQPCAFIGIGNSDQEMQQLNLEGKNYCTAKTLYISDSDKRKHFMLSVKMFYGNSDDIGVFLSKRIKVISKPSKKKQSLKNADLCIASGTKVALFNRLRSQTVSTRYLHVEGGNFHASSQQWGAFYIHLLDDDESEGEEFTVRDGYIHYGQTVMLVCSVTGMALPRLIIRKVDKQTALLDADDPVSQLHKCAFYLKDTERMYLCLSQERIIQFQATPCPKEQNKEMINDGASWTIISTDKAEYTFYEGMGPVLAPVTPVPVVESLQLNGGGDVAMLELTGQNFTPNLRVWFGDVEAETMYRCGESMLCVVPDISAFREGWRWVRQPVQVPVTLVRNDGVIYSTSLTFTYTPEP
Sequence of RBPJ (53–474) V263A (P31266 53-474 V263A): as the sequence (P31266 53-474 K275M) above, with V211A, M223K counted along it
T1 sequence (P31266 53-474 E260A): as the sequence (P31266 53-474 K275M) above, with E208A, M223K counted along it
Sequence of RBPJ (53–474) Q333A (P31266 53-474 Q333A): as the sequence (P31266 53-474 K275M) above, with M223K, Q281A counted along it
Sequence of RBPJ (53–474) E260K (P31266 53-474 E260K): as the sequence (P31266 53-474 K275M) above, with E208K, M223K counted along it

B1: L3MBTL3 (52–70) wild-type peptide (19-mer) (peptide, UniProt Q96JM7-2 52-70, looked up)
peptide: MENVKKATATTTWMVPTAQ
For the molecule B1, the Kd stood at 3.73 µM in the test with RBPJ (53–474) E260A [1], 3 µM in the test with RBPJ (53–474) V263A, 4.2 µM with RBPJ (53–474) K275M and 1.3 µM with RBPJ (53–474) Q333A. For the same molecule, the Ka in the test with RBPJ (53–474) E260A [2] amounted to 260000 M⁻¹; with RBPJ (53–474) E260K it was 220000 M⁻¹; with RBPJ (53–474) V263A, 330000 M⁻¹; with RBPJ (53–474) K275M, 240000 M⁻¹; with RBPJ (53–474) Q333A, 760000 M⁻¹. The dH with RBPJ (53–474) E260A [2] was -13.6 kcal/mol; with RBPJ (53–474) E260K, -16.8 kcal/mol; in the test with RBPJ (53–474) V263A, -10.3 kcal/mol; with RBPJ (53–474) K275M, -13.7 kcal/mol; with RBPJ (53–474) Q333A, -10.6 kcal/mol.

B2: Mus musculus CSL (RBPJ), residues 53–474 (structural core domain), wild type, as used for ITC (domain or fragment)
chain: not shown
For B2, in test [3], the Ka was 540000 M⁻¹ and the Kd came to 1.9 µM.

Values taken from publication PMC9825171 (Nucleic Acids Research, 2022).
